The record followed here is patent US20190225650A1, “PEPTIDOMIMETIC MACROCYCLES AND USE THEREOF IN REGULATING HIF1ALPHA” (AILERON THERAPEUTICS, INC., priority 2013, published 2019).

B1: SP-9 (peptide)
peptide: Ac-AIDEEVL[Nle][S5]LVI[S5][Nle]ALDRI-NH2
modifications: staple 9-13
SMILES: CCCC[C@H](NC(=O)[C@H](CC(C)C)NC(=O)[C@@H](NC(=O)[C@H](CCC(=O)O)NC(=O)[C@H](CCC(=O)O)NC(=O)[C@H](CC(=O)O)NC(=O)[C@@H](NC(=O)[C@H](C)NC(C)=O)[C@@H](C)CC)C(C)C)C(=O)N[C@@]1(C)CCCC=CCCC[C@@](C)(C(=O)N[C@@H](CCCC)C(=O)N[C@@H](C)C(=O)N[C@@H](CC(C)C)C(=O)N[C@@H](CC(=O)O)C(=O)N[C@@H](CCCNC(=N)N)C(=O)N[C@H](C(N)=O)[C@@H](C)CC)NC(=O)[C@H]([C@@H](C)CC)NC(=O)[C@H](C(C)C)NC(=O)[C@H](CC(C)C)NC1=O
B2: SP-15 (peptide)
peptide: Ac-FIDEEVA[Nle][S5]LVI[S5][Nle]ALDRI-NH2
modifications: staple 9-13
SMILES: CCCC[C@H](NC(=O)[C@H](C)NC(=O)[C@@H](NC(=O)[C@H](CCC(=O)O)NC(=O)[C@H](CCC(=O)O)NC(=O)[C@H](CC(=O)O)NC(=O)[C@@H](NC(=O)[C@H](Cc1ccccc1)NC(C)=O)[C@@H](C)CC)C(C)C)C(=O)N[C@@]1(C)CCCC=CCCC[C@@](C)(C(=O)N[C@@H](CCCC)C(=O)N[C@@H](C)C(=O)N[C@@H](CC(C)C)C(=O)N[C@@H](CC(=O)O)C(=O)N[C@@H](CCCNC(=N)N)C(=O)N[C@H](C(N)=O)[C@@H](C)CC)NC(=O)[C@H]([C@@H](C)CC)NC(=O)[C@H](C(C)C)NC(=O)[C@H](CC(C)C)NC1=O
B3: SP-12 (peptide)
peptide: Ac-FIDAEVL[Nle][S5]LVI[S5][Nle]ALDRI-NH2
modifications: staple 9-13
SMILES: CCCC[C@H](NC(=O)[C@H](CC(C)C)NC(=O)[C@@H](NC(=O)[C@H](CCC(=O)O)NC(=O)[C@H](C)NC(=O)[C@H](CC(=O)O)NC(=O)[C@@H](NC(=O)[C@H](Cc1ccccc1)NC(C)=O)[C@@H](C)CC)C(C)C)C(=O)N[C@@]1(C)CCCC=CCCC[C@@](C)(C(=O)N[C@@H](CCCC)C(=O)N[C@@H](C)C(=O)N[C@@H](CC(C)C)C(=O)N[C@@H](CC(=O)O)C(=O)N[C@@H](CCCNC(=N)N)C(=O)N[C@H](C(N)=O)[C@@H](C)CC)NC(=O)[C@H]([C@@H](C)CC)NC(=O)[C@H](C(C)C)NC(=O)[C@H](CC(C)C)NC1=O
B4: SP-16 (peptide)
peptide: Ac-FIDEEVLA[S5]LVI[S5][Nle]ALDRI-NH2
modifications: staple 9-13
SMILES: CCCC[C@H](NC(=O)[C@]1(C)CCCC=CCCC[C@](C)(NC(=O)[C@H](C)NC(=O)[C@H](CC(C)C)NC(=O)[C@@H](NC(=O)[C@H](CCC(=O)O)NC(=O)[C@H](CCC(=O)O)NC(=O)[C@H](CC(=O)O)NC(=O)[C@@H](NC(=O)[C@H](Cc2ccccc2)NC(C)=O)[C@@H](C)CC)C(C)C)C(=O)N[C@@H](CC(C)C)C(=O)N[C@@H](C(C)C)C(=O)N[C@@H]([C@@H](C)CC)C(=O)N1)C(=O)N[C@@H](C)C(=O)N[C@@H](CC(C)C)C(=O)N[C@@H](CC(=O)O)C(=O)N[C@@H](CCCNC(=N)N)C(=O)N[C@H](C(N)=O)[C@@H](C)CC
B5: SP-30 (peptide)
peptide: Ac-EIDEEVL[Nle][S5]LVI[S5][Nle]ALDRI-NH2
modifications: staple 9-13
SMILES: CCCC[C@H](NC(=O)[C@H](CC(C)C)NC(=O)[C@@H](NC(=O)[C@H](CCC(=O)O)NC(=O)[C@H](CCC(=O)O)NC(=O)[C@H](CC(=O)O)NC(=O)[C@@H](NC(=O)[C@H](CCC(=O)O)NC(C)=O)[C@@H](C)CC)C(C)C)C(=O)N[C@@]1(C)CCCC=CCCC[C@@](C)(C(=O)N[C@@H](CCCC)C(=O)N[C@@H](C)C(=O)N[C@@H](CC(C)C)C(=O)N[C@@H](CC(=O)O)C(=O)N[C@@H](CCCNC(=N)N)C(=O)N[C@H](C(N)=O)[C@@H](C)CC)NC(=O)[C@H]([C@@H](C)CC)NC(=O)[C@H](C(C)C)NC(=O)[C@H](CC(C)C)NC1=O
B6: SP-10 (peptide)
peptide: Ac-FADEEVL[Nle][S5]LVI[S5][Nle]ALDRI-NH2
modifications: staple 9-13
SMILES: CCCC[C@H](NC(=O)[C@H](CC(C)C)NC(=O)[C@@H](NC(=O)[C@H](CCC(=O)O)NC(=O)[C@H](CCC(=O)O)NC(=O)[C@H](CC(=O)O)NC(=O)[C@H](C)NC(=O)[C@H](Cc1ccccc1)NC(C)=O)C(C)C)C(=O)N[C@@]1(C)CCCC=CCCC[C@@](C)(C(=O)N[C@@H](CCCC)C(=O)N[C@@H](C)C(=O)N[C@@H](CC(C)C)C(=O)N[C@@H](CC(=O)O)C(=O)N[C@@H](CCCNC(=N)N)C(=O)N[C@H](C(N)=O)[C@@H](C)CC)NC(=O)[C@H]([C@@H](C)CC)NC(=O)[C@H](C(C)C)NC(=O)[C@H](CC(C)C)NC1=O
B7: SP-11 (peptide)
peptide: Ac-FIAEEVL[Nle][S5]LVI[S5][Nle]ALDRI-NH2
modifications: staple 9-13
SMILES: CCCC[C@H](NC(=O)[C@H](CC(C)C)NC(=O)[C@@H](NC(=O)[C@H](CCC(=O)O)NC(=O)[C@H](CCC(=O)O)NC(=O)[C@H](C)NC(=O)[C@@H](NC(=O)[C@H](Cc1ccccc1)NC(C)=O)[C@@H](C)CC)C(C)C)C(=O)N[C@@]1(C)CCCC=CCCC[C@@](C)(C(=O)N[C@@H](CCCC)C(=O)N[C@@H](C)C(=O)N[C@@H](CC(C)C)C(=O)N[C@@H](CC(=O)O)C(=O)N[C@@H](CCCNC(=N)N)C(=O)N[C@H](C(N)=O)[C@@H](C)CC)NC(=O)[C@H]([C@@H](C)CC)NC(=O)[C@H](C(C)C)NC(=O)[C@H](CC(C)C)NC1=O
B8: SP-23 (peptide)
peptide: FIDEEVLLALVIALALARI
modifications: not fully specified; Ac-FIDEEVL-Nle-$-LVI-$-Nle-ALARI-NH2
B9: SP-20 (peptide)
peptide: FIDEEVLLALVIAAALDRI
modifications: not fully specified; Ac-FIDEEVL-Nle-$-LVI-$-AALDRI-NH2
B10: SP-26 (peptide)
peptide: Ac-FIDEEVLA[S5]LVI[S5]AALDRI-NH2
modifications: staple 9-13
SMILES: CC[C@H](C)[C@H](NC(=O)[C@H](CCCNC(=N)N)NC(=O)[C@H](CC(=O)O)NC(=O)[C@H](CC(C)C)NC(=O)[C@H](C)NC(=O)[C@H](C)NC(=O)[C@]1(C)CCCC=CCCC[C@](C)(NC(=O)[C@H](C)NC(=O)[C@H](CC(C)C)NC(=O)[C@@H](NC(=O)[C@H](CCC(=O)O)NC(=O)[C@H](CCC(=O)O)NC(=O)[C@H](CC(=O)O)NC(=O)[C@@H](NC(=O)[C@H](Cc2ccccc2)NC(C)=O)[C@@H](C)CC)C(C)C)C(=O)N[C@@H](CC(C)C)C(=O)N[C@@H](C(C)C)C(=O)N[C@@H]([C@@H](C)CC)C(=O)N1)C(N)=O
B11: SP-32 (peptide)
peptide: Ac-FIDEEDL[Nle][S5]LVI[S5][Nle]ALDRI-NH2
modifications: staple 9-13
SMILES: CCCC[C@H](NC(=O)[C@H](CC(C)C)NC(=O)[C@H](CC(=O)O)NC(=O)[C@H](CCC(=O)O)NC(=O)[C@H](CCC(=O)O)NC(=O)[C@H](CC(=O)O)NC(=O)[C@@H](NC(=O)[C@H](Cc1ccccc1)NC(C)=O)[C@@H](C)CC)C(=O)N[C@@]1(C)CCCC=CCCC[C@@](C)(C(=O)N[C@@H](CCCC)C(=O)N[C@@H](C)C(=O)N[C@@H](CC(C)C)C(=O)N[C@@H](CC(=O)O)C(=O)N[C@@H](CCCNC(=N)N)C(=O)N[C@H](C(N)=O)[C@@H](C)CC)NC(=O)[C@H]([C@@H](C)CC)NC(=O)[C@H](C(C)C)NC(=O)[C@H](CC(C)C)NC1=O
B12: SP-31 (peptide)
peptide: Ac-FEDEEVL[Nle][S5]LVI[S5][Nle]ALDRI-NH2
modifications: staple 9-13
SMILES: CCCC[C@H](NC(=O)[C@H](CC(C)C)NC(=O)[C@@H](NC(=O)[C@H](CCC(=O)O)NC(=O)[C@H](CCC(=O)O)NC(=O)[C@H](CC(=O)O)NC(=O)[C@H](CCC(=O)O)NC(=O)[C@H](Cc1ccccc1)NC(C)=O)C(C)C)C(=O)N[C@@]1(C)CCCC=CCCC[C@@](C)(C(=O)N[C@@H](CCCC)C(=O)N[C@@H](C)C(=O)N[C@@H](CC(C)C)C(=O)N[C@@H](CC(=O)O)C(=O)N[C@@H](CCCNC(=N)N)C(=O)N[C@H](C(N)=O)[C@@H](C)CC)NC(=O)[C@H]([C@@H](C)CC)NC(=O)[C@H](C(C)C)NC(=O)[C@H](CC(C)C)NC1=O
B13: SP-14 (peptide)
peptide: Ac-FIDEEAL[Nle][S5]LVI[S5][Nle]ALDRI-NH2
modifications: staple 9-13
SMILES: CCCC[C@H](NC(=O)[C@H](CC(C)C)NC(=O)[C@H](C)NC(=O)[C@H](CCC(=O)O)NC(=O)[C@H](CCC(=O)O)NC(=O)[C@H](CC(=O)O)NC(=O)[C@@H](NC(=O)[C@H](Cc1ccccc1)NC(C)=O)[C@@H](C)CC)C(=O)N[C@@]1(C)CCCC=CCCC[C@@](C)(C(=O)N[C@@H](CCCC)C(=O)N[C@@H](C)C(=O)N[C@@H](CC(C)C)C(=O)N[C@@H](CC(=O)O)C(=O)N[C@@H](CCCNC(=N)N)C(=O)N[C@H](C(N)=O)[C@@H](C)CC)NC(=O)[C@H]([C@@H](C)CC)NC(=O)[C@H](C(C)C)NC(=O)[C@H](CC(C)C)NC1=O

Bridge positions count the residues as written; N and C are the ends. Square brackets hold non-standard residues; d marks the D form. S5 = C=CCCC[C@](C)(N)C(=O)O; Nle = CCCC[C@H](N)C(=O)O

For orientation: IC50 means the concentration that inhibits the measured activity by half. Low values mean greater potency, high ones weaker potency.

This assay deals with T1, His6-tagged p300 (AA 323-423) (UniProt Q09472 323-423).
T1 construct: range 323-423; also called p300-CH; not shown: His6 tag
T1 sequence (Q09472 323-423 limits assumed): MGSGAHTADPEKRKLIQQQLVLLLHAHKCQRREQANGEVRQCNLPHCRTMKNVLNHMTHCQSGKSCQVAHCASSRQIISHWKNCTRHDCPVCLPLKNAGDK
The assay can be described thus: TR-FRET HIF1a/p300 displacement; grade = IC50 >700 nM. How it is done: The ability of peptides to displace HIF1α c-terminal trans-activation domain from p300-CH was measured by a TR FRET assay. […] The complex was diluted to 300 nM final in complete assay media and competitor peptides were added. The complete assay media contained 150 mM NaCl (Sigma +S5150 or equivalent), 20 mM HEPES pH 7.4 (Boston Bioproducts, Ashland, Mass.; #BB-2076), 7.5 mM CHAPS (Thermo #28300 or equivalent), and 1 mM DTT. Protein and peptide were incubated at room temperature for 1 hour before the addition of anti-Flag-K and anti-6×HIS-D2 (CisBio, Bedford Mass.) HTRF reconstitution buffer (50 mM Phosphate pH 7, 0.8 Potassium Flouride, BSA 0.2%)¹ to a final concentration of 0.5 μM and 4 nM respectively. The reaction continued for an additional two hours at room temperature. The reaction was read on a TECAN F500 plate reader with settings recommended by CisBio. The ratio of donor to acceptor fluorescence was calculated. The resulting data was analyzed with Graphpad Prism 5.0. IC50 values were calculated for both proteins using the One Site Fit-LogIC50 equation and presented in the column “IC₅₀ (nM) (HIF1α_p300 Displacement+CHAPS)” of Table 6. ¹ Cisbio USA, Bedford, Mass.; 61HISDLB (lot 007A), 61FG2KLB (024A), HTRF Buffer (62RB3RDF)
(In general: In TR-FRET formats the signal depends on donor and acceptor labels being close together.)
B1 yielded an IC50 of over 700 nM.

The molecule B2 displayed an IC50 of over 700 nM.

With B3, the IC50 was over 700 nM.

On to B4, for which the IC50 is over 700 nM.

In turn, B5 registered an IC50 of over 700 nM.

As to B6, the IC50 is over 700 nM.

B7: the IC50 is over 700 nM.

B8: the IC50 was over 700 nM.

Regarding B9, the IC50 was over 700 nM.

Regarding B10, the IC50 was over 700 nM.

Take B11: the IC50 was over 700 nM.

Consider B12, for which the IC50 is over 700 nM.

As for B13, the IC50 is over 700 nM.
